According to paper PMC2607196:

Target: CNTF-Rα/CNTF binary complex (human) (UniProt P26441)
Assay: SEC

Row | stoichiometry N | Substance
1 | 1 | gp130 (D1-D3) (domain or fragment)
2 | 1 | gp130 (D2-D3) (from UniProt P40189 23-918) (domain or fragment)
